Holding throughout (type): cell-based, human
One experiment relates to 3D-EPs. In words: WNT5A treatment in 3D SC-β cell differentiation protocol (Pagliuca et al., 2014). The conditions noted are these: 4 days of treatment, compared to INS upregulation at 12-day in original protocol. Here is the method: SC-β cells were generated using the protocol as previously described (Pagliuca et al., 2014). WNT5A were introduced into the differentiation from EP stage (EN in the original paper) together with T3, ALK5i in CMRL media for the first two days and then change into T3, ALK5i in CMRL media from the third day. Samples were collected at the 4th day and 12th day counting from EP stage and were fixed with 4% PFA and thrice washed with PBS for 10 min. For whole-mount staining, samples were first blocked with 5% donkey serum in PBST overnight and incubated with antibodies overnight as described above.

Experiment [1] relates to canonical β-catenin-dependent pathway. In words: TOPFLASH reporter assay. Particulars: 100 or 500 ng/ml WNT5A, 3 days. As to the method: For TOPFLASH reporter assay, 80,000 EPs were transfected with 0.5 μg of TOPFLASH (Addgene #12456) or FOPFLASH (Addgene #12457) from Dr. Randall Moon, together with 0.25 μg pRLTK using Lipofectamine 2000 (Invitrogen) for 48h. Cells were then treated with CHIR99021 (as positive control), DMSO (mock control) or WNT5A for 3 days before collecting the samples. Luciferase assay was performed using Dual luciferase assay system (Promega) which Luciferase and Renilla signal were measured by TD20/20 Luminometer (Turner designs).

In experiment [2] the test system is hESC-derived EPs. In words: RNA-sequencing of EPs treated with WNT5A. Here is the method: Total RNA was extracted as described elsewhere herein and RNA quality was assessed using 2100 Bioanalyzer (Agilent Genomics). Samples with RIN≥9 preceded to library preparation using TruSeq stranded mRNA Library Prep Kit LT (Illumina) according to the manufacturer's protocol. Library concentration was determined by qPCR (KAPA Library Quantification Kit) to pool equal amounts of libraries with different adaptor indexes. Sequencing was performed using NextSeq500 (Illumina).
After preliminary analyses, showing a significant Pearson Correlation Coeficient for gene expression, two biological replicates were concatenated and analysed as single samples. This step yielded four samples, two for each treatment (5 days and 12h), as well as untreated samples. All reads were considered single-end in the bioinformatic analyses.
For Venn diagram, TFactS analysis and Gene enrichment analysis (GSEA), sequencing reads were first aligned using TopHat and the gene differential expression were assembled and analyzed using Cufflinks. […] To predict which transcription factors are responsible to the gene changes in the sequencing result, TFactS analysis was performed by inputting up and down regulation gene lists. […] For GSEA (http://software.broadinstitute.org/gsea/index.jsp), all input files were generated through GenePattern and the analysis was performed based on the instruction from Broad institute GSEA user guide with the following parameter: phenotype labels as 5dUT versus 5dWNT5A, 1000 genes set of permutations, weighted enrichment statistic, gene sets between 15 to 500, with log 2 ratio of class as metric for ranking genes. […] Data GEO submission number: GSE 90785.

The test system of experiment [3] is hESC-derived EPs. In words: qPCR-based gene expression analysis of WNT5A-treated EPs. Here is the method: Total RNA was isolated using TRIzol (Thermo Fisher Scientific) according to the manufacturer's protocol. DNAase (Qiagen) treatment was performed to remove genomic DNA. cDNA was synthesized using iScript (Biorad) by using […] of RNA. For qPCR, KAPA SYBR FAST (Kapa Biosystems) and Connect CFX light cycler (Biorad) for PCR reaction (<40 cycles were used). Primers were designed using qPrimerDepot in such way that the PCR product spans across exons junction. Primer specificity was checked using CFX manager software v3.1 […] and PCR product electrophoresis. Threshold data were analyzed by CFX manager software v3.1 using Comparative Ct relative quantitation method with TBP as internal control.

A further experiment relates to AP-1. In words: Dual-pathway multicolor luciferase assay, AP-1 reporter. The conditions noted are these: 500 ng/ml WNT5A, after 24h. The text has this:
(§1) The dual-pathway luciferase reporter vector was generated using the GoldenBraid2.0 Assembly Platform (Sarrion-Perdigones et al., 2011; Sarrion-Perdigones et al., 2013). Briefly, transcriptional units comprising the promoter elements, the CDS of the corresponding luciferase and the bovine growth hormone terminator were first assembled, and then these were latter combined in successive rounds of assembly to build the multigenic vector used in this assay. For the multicolor luciferase assay, H1-derived EPs were first dissociated into 96-well plates using method previously described and incubated overnight to allow cell attachment. […] At the determined harvesting point, culture media was removed and wells were washed with PBS. […] 10 μL of LARII reagent was added with the built-in injectors and after 2 seconds, the total light and the BP filtered light emitted by the FLuc and RedF mixture were measured for 1 second. Finally, 15 μL of Stop & Glo® reagent were injected and after 4 seconds the emitted light by Renilla luciferase was measured. The activity corresponding to FLuc and RedF that were simultaneously measured after the LARII reagent was added were calculated according to the method proposed by Nakayima et al (Nakajima et al., 2005) that is adjusted to this particular assay and explained in FIG. 7D.

The test system of another experiment is Smad. Description: Dual-pathway multicolor luciferase assay, Smad reporter. Particulars: 500 ng/ml WNT5A, at 36 and 48h.
Source text: as §1

Where [4] appears, read: 5-day long treatment with WNT5A.

B1: WNT5A: secreted growth factor from the human pancreatic niche (R&D), used at 100 or 500 ng/ml (protein)
chain: IIGAQPLCSQLAGLSQGQKKLCHLYQDHMQYIGEGAKTGIKECQYQFRHRRWNCSTVDNTSVFGRVMQIGSRETAFTYAVSAAGVVNAMSRACREGELSTCGCSRAARPKDLPRDWLWGGCGDNIDYGYRFAKEFVDARERERIHAKGSYESARILMNLHNNEAGRRTVYNLADVACKCHGVSGSCSLKTCWLQLADFRKVGDALKEKYDSAAAMRLNSRGKLVQVNSRFNSPTTQDLVYIDPSPDYCVRNESTGSLGTQGRLCNKTSEGMDGCELMCCGRGYDQFKTVQTERCHCKFHWCCYVKCKKCTEIVDQFVCK
As for B1, the “number of INS+ cells in independent 3D protocol (in words)” value with 3D-EPs is “increasing the number of INS+ cells”. In experiment [1], the “activity of β-catenin-dependent pathway, TOPFLASH (in words)” value was “did not significantly activate or antagonize”. In addition, in the experiment with hESC-derived EPs [2] (5-day WNT5A treatment), the “downregulation of GCG” value is 5 fold, the “downregulation of MAFB” value is reported as 3 fold, the “downregulation of NGN3” value is given as 2 fold and the “up-regulation of GCK” value came out at 9 fold. Moreover, in the experiment with hESC-derived EPs [2] (5-day WNT5A treatment), the “up-regulation of INS” value was 81 fold, the “up-regulation of NEUROD1” value is 56 fold, the “up-regulation of PCSK2” value amounted to 7 fold and the “up-regulation of SYT4” value is listed as 16 fold. For the same molecule, in the experiment with hESC-derived EPs [2] (setting [4]), the “expression of BMP3, 4, and 6, GDF5 and 9 (in words)” value is “downregulated”; the “expression of DCN and BMP antagonist BMPER (in words)” value is recorded as “upregulated”. In addition, in the experiment with hESC-derived EPs [3] (5-day WNT5A-treated cells), the “GCG expression compared to untreated cells (in words)” value is recorded as “decreased”; the “INS, CHGA, ONECUT1 and PCSK2 expression compared to untreated cells (in words)” value was “increased”. In the experiment on hESC-derived EPs [3] (5 day-WNT5A treatment), the “BMP3, BMP4 and BMP6 expression by qPCR (in words)” value is “downregulation”; the “BMP inhibitor BMPER expression by qPCR (in words)” value is “upregulation”. For the same molecule, the “AP-1 activity (in words)” value in the experiment on AP-1 was “activates”. The “Smad activity (in words)” value in the experiment with Smad is on record as “decreases”.
